In general, IC50 refers to the concentration that inhibits the measured activity by half.

Positions count from the first letter of the chain named.

In assay [1] the target is T1, PDL1-HSA fusion protein composed of PDL1 extracellular domain and human serum albumin (human).
T1 construct: The entry is the whole fusion: PD-L1 extracellular domain, linker, human serum albumin; also called Human PDL1-HSA; hPDL1-HSA
The assay can be described thus: competitive ELISA on coated PDL1-HSA; competitor PD1-Fc (4.8 µg/mL, mixed in equal volume). The procedure:
PDL1-HSA was coated onto a plate overnight in an amount of 200 ng/well at 4° C., and blocked with 5% skimmed milk powder for 1 hr at room temperature. […] 100 μl was added per well and incubated at 37° C. for 1 hr. After washing three times with PBST, 100 μl of 1:20000 diluted HRP-Goat anti-Human IgG Fc(Novex) was added to each well, and incubated at room temperature for 1 hr. After washing three times with PBS, TMB substrate was added, and the plated was incubated at 37° C. After incubation for 5 min to develop color, 1 M sulfuric acid was added to stop the reaction. The OD value was read at 450 nm, and the half maximal inhibitory concentration (IC50 value) was calculated.

For assay [2], the target named is T2, Mouse mPDL1-HSA fusion protein (mouse).
T2 construct: The entry is the whole fusion of mouse PD-L1 with HSA; also called mouse PDL1
The assay can be described thus: ELISA on coated mPDL1-HSA, anti-his detection. How it is done:
Mouse mPDL1-HSA fusion protein (SEQ ID NO: 52) was coated onto a plate overnight in an amount of 200 ng/ well at 4° C., and blocked with 5% skimmed milk powder for 1 hr at room temperature. The purified histidine-tagged anti-PDL1single-domain antibody was diluted to 1 μg/mL, then added to the plate in an amount of 100 μL/well, and incubated at 37° C. for 1 hr. After washing three times with PBST, 100 μl/well of 1:5000 diluted mouse anti his tag antibody (R&D Systems Inc) was added, and the plate was incubated at room temperature for 1 hr. After washing with PBST, 100 μl/well of 1:10000 diluted HRP-Goat anti mouse IgG antibody (Thermo Scientific) was added, and the plate was incubated at room temperature for 1 hr. After washing with PBST, TMB was added for color development, and the OD value was detected at 450 nm.
(In general: ELISA stands for enzyme-linked immunosorbent assay.)

The target in assay [3] is T1, PDL1-HSA fusion protein composed of …. The assay is described as follows: ELISA, VHH at 1 µg/mL on coated PDL1-HSA, anti-his detection. How it is done:
(§1) Human PDL1-HSA or HSA (purchased from Sigma) was coated onto a plate in an amount of 200 ng/well at 4° C., and blocked with 5% skimmed milk powder for 1 hr at room temperature. The purified anti-PDL1single-domain antibody with a histidine-tag was diluted to 1 μg/mL, added to the plate in an amount of 100 μL/well, and incubated at 37° C. for 1 hr. After washing three times with PBST, 100 μl/well of 1:5000 diluted mouse anti-his tag antibody (R&D Systems Inc.) was added, and the plate was incubated at room temperature for 1 hr. After washing with PBST, 100 μwell of 1:10000 diluted HRP-Goat anti mouse IgG antibody (Thermo Scientific) was added, and the plate was incubated at room temperature for 1 hr. After washing with PBST, a TMB developing solution (Beijing ComWin Biotech Co., Ltd) was added for color development, and the OD value was read at 450 nm.

The target of assay [4] is T3, HSA (purchased from Sigma) (human, UniProt P02768 25-609).
T3 construct: Control coating for the fusion partner of PDL1-HSA; also called human serum albumin
The assay is described as follows: ELISA, VHH at 1 µg/mL on coated HSA, anti-his detection. The procedure: as §1

T1 sequence (chain, as listed by the source limits assumed): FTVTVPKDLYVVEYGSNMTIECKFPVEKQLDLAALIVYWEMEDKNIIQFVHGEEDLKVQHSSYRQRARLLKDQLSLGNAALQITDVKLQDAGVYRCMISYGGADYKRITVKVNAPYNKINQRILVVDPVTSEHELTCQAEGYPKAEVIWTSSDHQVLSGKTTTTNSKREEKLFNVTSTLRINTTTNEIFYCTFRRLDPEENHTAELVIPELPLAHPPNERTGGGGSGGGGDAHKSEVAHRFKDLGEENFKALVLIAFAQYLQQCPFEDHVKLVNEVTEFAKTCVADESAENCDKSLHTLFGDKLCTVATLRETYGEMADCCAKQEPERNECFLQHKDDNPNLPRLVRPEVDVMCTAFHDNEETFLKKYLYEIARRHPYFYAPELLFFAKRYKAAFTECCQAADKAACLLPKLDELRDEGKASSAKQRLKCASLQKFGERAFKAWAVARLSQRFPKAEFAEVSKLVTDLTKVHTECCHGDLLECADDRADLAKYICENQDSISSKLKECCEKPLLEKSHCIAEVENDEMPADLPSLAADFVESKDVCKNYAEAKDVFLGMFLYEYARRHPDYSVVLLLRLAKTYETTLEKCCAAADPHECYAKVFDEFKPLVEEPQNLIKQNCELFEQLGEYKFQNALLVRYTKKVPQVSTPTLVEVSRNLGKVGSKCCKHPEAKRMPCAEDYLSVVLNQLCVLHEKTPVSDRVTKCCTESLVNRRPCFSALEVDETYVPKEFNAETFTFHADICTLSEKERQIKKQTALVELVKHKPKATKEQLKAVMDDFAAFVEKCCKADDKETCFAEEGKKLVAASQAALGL
T2 sequence (chain, as listed by the source limits assumed): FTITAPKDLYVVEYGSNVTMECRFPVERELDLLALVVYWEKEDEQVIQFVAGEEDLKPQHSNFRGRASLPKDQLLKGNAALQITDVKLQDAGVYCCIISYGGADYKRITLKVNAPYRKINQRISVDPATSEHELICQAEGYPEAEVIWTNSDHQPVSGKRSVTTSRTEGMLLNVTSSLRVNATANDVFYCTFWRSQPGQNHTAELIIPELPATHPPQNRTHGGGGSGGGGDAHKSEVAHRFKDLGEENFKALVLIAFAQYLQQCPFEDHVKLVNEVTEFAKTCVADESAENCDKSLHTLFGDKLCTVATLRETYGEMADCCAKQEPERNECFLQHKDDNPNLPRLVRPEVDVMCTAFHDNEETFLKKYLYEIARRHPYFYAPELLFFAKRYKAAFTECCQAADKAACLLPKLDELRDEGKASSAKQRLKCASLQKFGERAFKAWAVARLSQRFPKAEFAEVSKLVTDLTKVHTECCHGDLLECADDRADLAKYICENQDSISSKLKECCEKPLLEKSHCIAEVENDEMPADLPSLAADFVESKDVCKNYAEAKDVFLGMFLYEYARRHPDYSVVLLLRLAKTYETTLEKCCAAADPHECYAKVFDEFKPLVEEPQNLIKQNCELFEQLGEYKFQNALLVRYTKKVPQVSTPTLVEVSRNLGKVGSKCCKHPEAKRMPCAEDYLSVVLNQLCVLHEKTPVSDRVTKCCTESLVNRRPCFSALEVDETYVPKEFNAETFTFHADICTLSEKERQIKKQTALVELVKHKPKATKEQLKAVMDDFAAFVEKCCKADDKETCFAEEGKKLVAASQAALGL
T3 sequence (P02768 25-609 limits assumed): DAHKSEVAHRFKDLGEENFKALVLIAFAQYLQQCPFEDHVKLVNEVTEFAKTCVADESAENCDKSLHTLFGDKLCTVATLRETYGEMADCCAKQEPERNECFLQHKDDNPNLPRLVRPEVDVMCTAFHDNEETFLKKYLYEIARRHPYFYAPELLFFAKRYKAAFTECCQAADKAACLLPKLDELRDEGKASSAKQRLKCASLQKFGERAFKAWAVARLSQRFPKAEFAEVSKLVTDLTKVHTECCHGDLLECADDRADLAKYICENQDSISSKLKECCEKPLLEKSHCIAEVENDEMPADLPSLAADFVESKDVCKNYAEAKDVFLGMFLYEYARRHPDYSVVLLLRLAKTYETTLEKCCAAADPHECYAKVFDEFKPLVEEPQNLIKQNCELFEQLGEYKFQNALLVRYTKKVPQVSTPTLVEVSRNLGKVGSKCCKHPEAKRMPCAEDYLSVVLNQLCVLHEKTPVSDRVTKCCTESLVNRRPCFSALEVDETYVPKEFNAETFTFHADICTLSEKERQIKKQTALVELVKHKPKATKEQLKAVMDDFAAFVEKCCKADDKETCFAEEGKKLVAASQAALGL

B1: anti-PDL1 single-domain antibody 1D1, histidine-tagged (VHH)
VHH: QLQLVESGGGLVQAGGSLRLSCAASGGTFITYAMGWFRQAPGKDREFVAGISWSGSSTYYTDSVKGRFTISRDNAKNTVYLQMNSLKPGDTAVYYCAAKISGATREHLMTSYDYWGQGTQVTVSS
notes: not shown: C-terminal histidine tag
In assay [1], B1 displayed an IC50 of 0.0452 µg/mL. Further, the binding result in assay [2] was “no binding (tested: 1 µg/mL)”. Moreover, the OD450 nm in assay [3] amounted to 2.01 OD450 nm; in assay [4] it was 0.074 OD450 nm.

B2: anti-PDL1 single-domain antibody 5A8, histidine-tagged (VHH)
VHH: B1 VHH with A14P, K76Q, L86R, M109R, W115G
notes: as for B1
B2 returned an IC50 in assay [1] of 0.0436 µg/mL. For the same molecule, the binding result in assay [2] is on record as “no binding (tested: 1 µg/mL)”. The OD450 nm was 2.02 OD450 nm in assay [3] and 0.064 OD450 nm in assay [4].

B3: anti-PDL1 single-domain antibody 1D7, histidine-tagged (VHH)
VHH: QVQLVESGGGLVQPGGSLRLSCAASGRAFLTYAMGWFRQAPGKEREFVAAISWSGSSTYYADSVKGRFTISRDNAKNMVYLQMNSLKPEDTAVYYCAAKVSGATRDHLMTTYDYWGQGTQVTVSS
notes: as for B1
Molecule B3 registered an IC50 in assay [1] of 0.0551 µg/mL. Further, in assay [2], the binding result was “no binding (tested: 1 µg/mL)”. Besides, the OD450 nm was 2.15 OD450 nm in assay [3] and 0.076 OD450 nm in assay [4].

B4: anti-PDL1 single-domain antibody 6F1, histidine-tagged (VHH)
VHH: QLQLVESGGGLVQPGGSLRLSCAASGRTFSTHSMHWFRQAPEKERVFVAAINWNGDSTYYADSVKGRFTISRDNSKNTVDLQMNNLKPEDTAVYVCAARPGAPSTIVAMLDYWGQGTQVTVSS
notes: as for B1
Molecule B4 registered an IC50 in assay [1] of 0.0527 µg/mL. Moreover, the binding result in assay [2] was “no binding (tested: 1 µg/mL)”. Moreover, the OD450 nm in assay [3] was determined as 2.05 OD450 nm; in assay [4] it was 0.081 OD450 nm.

B5: anti-PDL1 single-domain antibody 1A7, histidine-tagged (VHH)
VHH: QLQLVESGGDLVQPGGSLRLSCAASGSIFSANLIDWYRQPPGKQRELVAVISSRGITSYADSVKGRFTISRDNAKNTVYLQMNSLKPEDTAVYYCHLFHTDGLGYWGQGTQVTVSS
notes: as for B1
Take B5: in assay [1], the concentration for half-maximal inhibition (IC50) stood at 0.0505 µg/mL. Besides, the binding result in assay [2] is on record as “no binding (tested: 1 µg/mL)”. For the same molecule, the OD450 nm is 2.05 OD450 nm in assay [3] and 0.082 OD450 nm in assay [4].

B6: anti-PDL1 single-domain antibody 1G10, histidine-tagged (VHH)
VHH: QVQLVESGGGLVQAGGSLRLSCAASGRPFITYAMGWFRQAPGKEREFVAAINWSGSITAYADSVKGRFTISRDNAKNAAYLQMNSLKPDDTAVYYCASKRTAVAPRALNDYDFWGQGTQVTVSS
notes: as for B1
Consider B6, for which the IC50 in assay [1] came out at 0.0628 µg/mL. Besides, the binding result in assay [2] was “no binding (tested: 1 µg/mL)”. Further, the OD450 nm in assay [3] was found to be 2.08 OD450 nm; in assay [4], 0.073 OD450 nm.
